The source of these data is patent US10487348B2, “3-alpha-hydroxysteroid dehydrogenase mutants and process for the preparation of ursodeoxycholic acid” (Pharmazell GmbH, priority 2014, dated 2019).

In data set [1] the test system is 3α-HSDH; substrate DHCA. Format: biochemical, Comamonas testosteroni. As to conditions: for DHCA substrate concentration at maximum specific activity / substrate excess inhibition: purified enzyme variant.
Substrate in data set [2]: C[C@H](CCC(=O)O)[C@H]1CC[C@H]2[C@@H]3C(=O)C[C@@H]4CC(=O)CC[C@]4(C)[C@H]3CC(=O)[C@]12C
In words: cells, lysate or membranes named. As to conditions: pH 8.0, 25.0 °C.

Substrate in data set [3]: NC(=O)C1=CN([C@@H]2O[C@H](COP(=O)(O)OP(=O)(O)OC[C@H]3O[C@@H](n4cnc5c(N)ncnc54)[C@H](O)[C@@H]3O)[C@@H](O)[C@H]2O)C=CC1
In words: purified protein, by the assay type. As to conditions: other: Table 15, substrate NADH, apparent values, pH 8.0.

Substrate in data set [4]: C[C@H](CCC(=O)O)[C@H]1CC[C@H]2[C@@H]3C(=O)C[C@@H]4CC(=O)CC[C@]4(C)[C@H]3CC(=O)[C@]12C
As to the kind of experiment: purified protein, by the assay type. As to conditions: other: Table 14, substrate DHCA, tag N, apparent values, pH 8.0.

Substrate in data set [5]: NC(=O)C1=CN([C@@H]2O[C@H](COP(=O)(O)OP(=O)(O)OC[C@H]3O[C@@H](n4cnc5c(N)ncnc54)[C@H](O)[C@@H]3O)[C@@H](O)[C@H]2O)C=CC1
In words: Michaelis-Menten kinetics of wild-type 3α-HSDH with N-terminal His tag. The class given is biochemical, Comamonas testosteroni. As to conditions: other: Table 15, substrate NADH, apparent values, pH 8.0. From the text:
The His-tag allows for very simple purification of the HSDH protein since this sequence is bound with high specificity by specific chromatographic material (NTA (Ni-nitrilotriacetate)-modified support material, loaded with divalent nickel ions, for example “His Pur Ni-NTA” (Nimagen B. V., Nijmegen, The Netherlands)). To this end, the cell-free crude extract is applied to a dropping column comprising this material, which dropping column has previously been equilibrated with the disruption buffer (3 to 5 column volumes). Weakly binding protein was removed by washing with 3 to 5 column volumes of wash buffer (20 mM imidazole, 50 mM sodium phosphate, 300 mM NaCl, pH 8). The His-tag-3α-HSDH protein was eluted with imidazole-comprising elution buffer (250 mM imidazole, 50 mM sodium phosphate, 300 mM NaCl, pH 8). The process was carried out at room temperature. The imidazole which was present was to be removed by buffer exchange.
The activity of the 3α-HSDH and of the mutants was determined using a photometric assay, where the decrease in absorbance was measured at 340 nm over a period of 30 seconds.
The targeted exchange of amino acid radicals was performed analogously to Example 2B.
Following cultivation and expression, the cells were harvested, and the specific activities of the cell-free crude extracts were determined at substrate concentrations of 10 mM DHCA. The enzyme variants where the activity measurements with crude extract enzyme were most promising were purified by means of Ni-NTA chromatography, […] In addition, an expression check by means of SDS PAGE was carried out for all mutants.

Where [6] appears, read: other: crude extract (without His tag), DHCA, read from the diagram.

Where a chain is given by its changes, count along the chain named. Names may count otherwise. Marks after values point to notes of the source that are not given here.

B1: T188A N: 3α-HSDH mutant T188A with N-terminal hexahistidine tag (protein, UniProt P80702 2-257, looked up, variant T188A)
3-alpha-hydroxysteroid …: SIIVISGCATGIGAATRKVLEAAGHQIVGIDIRDAEVIADLSTAEGRKQAIADVLAKCSKGMDGLVLCAGLGPQTKVLGNVVSVNYFGATELMDAFLPALKKGHQPAAVVISSVASAHLAFDKNPLALALEAGEEAKARAIVEHAGEQGGNLAYAGSKNALTVAVRKRAAAWGEAGVRLNTIAPGAAETPLLQAGLQDPRYGESIAKFVPPMGRRAEPSEMASVIAFLMSPAASYVHGAQIVIDGGIDAVMRPTQF
modifications: N-terminal His6 tag
notes: 3α-HSDH mutant T188A with N-terminal hexahistidine tag
Consider B1, for which the “DHCA substrate concentration at maximum specific activity” value (from here on “DHCA substrate concentration”) in data set [1] is listed as 0.5 mM. In addition, the substrate excess inhibition entry in data set [1] (substrate DHCA) is recorded as “pronounced substrate excess inhibition”.

B2: T188S N: 3α-HSDH mutant T188S with N-terminal hexahistidine tag (protein, UniProt P80702 2-257, looked up, variant T188S)
3-alpha-hydroxysteroid …: B1 3-alpha-hydroxysteroid … with A187S
modifications: N-terminal His6 tag
notes: 3α-HSDH mutant T188S with N-terminal hexahistidine tag
On to B2, for which, in data set [1], the “DHCA substrate concentration” value came out at 0.5 mM. Moreover, the substrate excess inhibition result in data set [1] (substrate DHCA) is “substrate excess inhibition is observed”.

B3: L68A/T188S N: 3α-HSDH dual mutant L68A/T188S with N-terminal hexahistidine tag (protein, UniProt P80702 2-257, looked up, variant L68A T188S)
3-alpha-hydroxysteroid …: B1 3-alpha-hydroxysteroid … with L67A, A187S
modifications: N-terminal His6 tag
notes: 3α-HSDH dual mutant L68A/T188S with N-terminal hexahistidine tag
B3: the “DHCA substrate concentration” value in data set [1] worked out at 0.5 mM. In addition, the substrate excess inhibition result in data set [1] (substrate DHCA) is reported as “pronounced substrate excess inhibition”.

B4: L68A N: 3α-HSDH mutant L68A with N-terminal hexahistidine tag (protein, UniProt P80702 2-257, looked up, variant L68A)
3-alpha-hydroxysteroid …: B1 3-alpha-hydroxysteroid … with L67A, A187T
modifications: N-terminal His6 tag
notes: 3α-HSDH mutant L68A with N-terminal hexahistidine tag
As for B4, in data set [1], the “DHCA substrate concentration” value is on record as 0.1 mM. Further, in data set [1] (substrate DHCA), the substrate excess inhibition result is recorded as “pronounced substrate excess inhibition”.

B5: P185A/T188A N: 3α-HSDH dual mutant P185A/T188A with N-terminal hexahistidine tag (protein, UniProt P80702 2-257, looked up, variant P185A T188A)
3-alpha-hydroxysteroid …: B1 3-alpha-hydroxysteroid … with P184A
modifications: N-terminal His6 tag
notes: 3α-HSDH dual mutant P185A/T188A with N-terminal hexahistidine tag
Consider B5, for which the “DHCA substrate concentration” value in data set [1] is reported as 0.5 mM. Also, in data set [1] (substrate DHCA), the substrate excess inhibition result is on record as “substrate excess inhibition was observed” and the “activities compared with the corresponding single mutants” value is listed as “markedly lower”.

B6: L68A/T188A N: 3α-HSDH dual mutant L68A/T188A with N-terminal hexahistidine tag (protein, UniProt P80702 2-257, looked up, variant L68A T188A)
3-alpha-hydroxysteroid …: B1 3-alpha-hydroxysteroid … with L67A
modifications: N-terminal His6 tag
notes: 3α-HSDH dual mutant L68A/T188A with N-terminal hexahistidine tag
For B6, the “DHCA substrate concentration” value in data set [1] is 0.5 mM. Moreover, in data set [1] (substrate DHCA), the substrate excess inhibition result is “less pronounced substrate excess inhibition”.

B7: Comamonas testosteroni 3α-HSDH, wild type, C-terminal 3×His tag (Comamonas testosteroni) (protein)
chain: MSIIVISGCATGIGAATRKVLEAAGHQIVGIDIRDAEVIADLSTAEGRKQAIADVLAKCSKGMDGLVLCAGLGPQTKVLGNVVSVNYFGATELMDAFLPALKKGHQPAAVVISSVASAHLAFDKNPLALALEAGEEAKARAIVEHAGEQGGNLAYAGSKNALTVAVRKRAAAWGEAGVRLNTIAPGATETPLLQAGLQDPRYGESIAKFVPPMGRRAEPSEMASVIAFLMSPAASYVHGAQIVIDGGIDAVMRPTQFLEHHH
For the molecule B7, in data set [2] (other: His tag length 3, DHCA 10 μM-10 mM, NADH 0.2 mM, purified), the Km was 997.9 ± 483 µM.

B8: Comamonas testosteroni 3α-HSDH, wild type, C-terminal 9×His tag (SEQ ID NO: 51) (Comamonas testosteroni) (protein)
chain: MSIIVISGCATGIGAATRKVLEAAGHQIVGIDIRDAEVIADLSTAEGRKQAIADVLAKCSKGMDGLVLCAGLGPQTKVLGNVVSVNYFGATELMDAFLPALKKGHQPAAVVISSVASAHLAFDKNPLALALEAGEEAKARAIVEHAGEQGGNLAYAGSKNALTVAVRKRAAAWGEAGVRLNTIAPGATETPLLQAGLQDPRYGESIAKFVPPMGRRAEPSEMASVIAFLMSPAASYVHGAQIVIDGGIDAVMRPTQFLEHHHHHHHHH
For B8, the Km in data set [2] (other: His tag length 9, DHCA 10 μM-10 mM, NADH 0.2 mM, purified) turned out to be 70.5 ± 14.2 µM.

B9: Comamonas testosteroni 3α-HSDH, wild type, without His tag, SEQ ID NO:4 (Comamonas testosteroni) (protein)
chain: MSIIVISGCATGIGAATRKVLEAAGHQIVGIDIRDAEVIADLSTAEGRKQAIADVLAKCSKGMDGLVLCAGLGPQTKVLGNVVSVNYFGATELMDAFLPALKKGHQPAAVVISSVASAHLAFDKNPLALALEAGEEAKARAIVEHAGEQGGNLAYAGSKNALTVAVRKRAAAWGEAGVRLNTIAPGATETPLLQAGLQDPRYGESIAKFVPPMGRRAEPSEMASVIAFLMSPAASYVHGAQIVIDGGIDAVMRPTQF
On to B9, for which, in data set [2] (setting [6]), the Km is reported as 200* μM and the Vmax amounted to 25 µmol/min/mg. Further, in data set [3] (without tag, 25.0 °C), the Km was found to be 46.9 ± 5.9 µM, the Vmax turned out to be 186 µmol/min/mg, the kcat was determined as 88.5 s⁻¹ and the kcat/Km is 1.88e+06 M⁻¹ s⁻¹.

B10: Comamonas testosteroni 3α-HSDH mutant [L68A], N-terminal hexahistidine tag (Comamonas testosteroni; L68A) (protein)
chain: B9 chain with L68A
Turning to B10, in data set [3] (tag N), the Km worked out at 17.1 ± 3.7 µM, the Vmax was found to be 138 µmol/min/mg, the kcat was 110 s⁻¹ and the kcat/Km stood at 6.46e+06 M⁻¹ s⁻¹. Further, the Km in data set [4] (NADH 0.2 mM) was 75.4 ± 22.6 µM.

B11: Comamonas testosteroni 3α-HSDH dual mutant [P185A/T188A], N-terminal hexahistidine tag (Comamonas testosteroni; P185A/T188A) (protein)
chain: B9 chain with P185A, T188A
With B11, in data set [3] (tag N), the Km worked out at 333.9 ± 137.5 µM, the Vmax worked out at 85.9 µmol/min/mg, the kcat stood at 17.6 s⁻¹ and the kcat/Km turned out to be 52600 M⁻¹ s⁻¹. The Km in data set [4] amounted to 66.9 ± 15 µM.

B12: Comamonas testosteroni 3α-HSDH mutant [P185A], N-terminal hexahistidine tag (Comamonas testosteroni; P185A) (protein)
chain: B9 chain with P185A
For the molecule B12, in data set [4], the Km amounted to 71.0 ± 11 µM.

B13: Comamonas testosteroni 3α-HSDH mutant [T188A], N-terminal hexahistidine tag (Comamonas testosteroni; T188A) (protein)
chain: B9 chain with T188A
Take B13: in data set [3] (tag N), the Km amounted to 111.5 ± 18.2 µM, the Vmax came out at 237 µmol/min/mg, the kcat worked out at 130 s⁻¹ and the kcat/Km was 1.17e+06 M⁻¹ s⁻¹. In addition, in data set [4], the Km came to 94.5 ± 11 µM.

B14: Comamonas testosteroni 3α-HSDH dual mutant [L68A/T188S], N-terminal hexahistidine tag (Comamonas testosteroni; L68A/T188S) (protein)
chain: B9 chain with L68A, T188S
For B14, in data set [3] (tag N), the Km came to 47.4 ± 2.6 µM, the Vmax was determined as 188 µmol/min/mg, the kcat stood at 91.8 s⁻¹ and the kcat/Km stood at 1.94e+06 M⁻¹ s⁻¹. For the same molecule, in data set [4], the Km came to 169.6 ± 22.6 µM.

B15: Comamonas testosteroni 3α-HSDH, wild type, N-terminal hexahistidine tag (Comamonas testosteroni) (protein)
chain: B9 chain
As to B15, in data set [5], the Km turned out to be 59.2 ± 6.9 µM, the Vmax was 109 µmol/min/mg, the kcat turned out to be 47.1 s⁻¹ and the kcat/Km amounted to 796000 M⁻¹ s⁻¹.

B16: Comamonas testosteroni 3α-HSDH dual mutant [L68A/T188A], N-terminal hexahistidine tag (Comamonas testosteroni; L68A/T188A) (protein)
chain: B9 chain with L68A, T188A
For B16, in data set [3] (tag N), the Km amounted to 67.5 ± 4.7 µM, the Vmax was found to be 229 µmol/min/mg, the kcat amounted to 111 s⁻¹ and the kcat/Km was found to be 1.65e+06 M⁻¹ s⁻¹. The Km in data set [4] stood at 164.4 ± 20.4 µM.

B17: Comamonas testosteroni 3α-HSDH mutant [T188S], N-terminal hexahistidine tag (Comamonas testosteroni; T188S) (protein)
chain: B9 chain with T188S
On to B17, for which, in data set [3] (tag N), the Km stood at 87.6 ± 29.7 µM, the Vmax is 147 µmol/min/mg, the kcat was 96.1 s⁻¹ and the kcat/Km worked out at 1.1e+06 M⁻¹ s⁻¹. Further, the Km in data set [4] was 312.6 ± 112 µM.

By Km is commonly meant the concentration of substrate that gives half-maximal velocity. The Vmax is the rate approached at saturating substrate. As a reminder, the kcat is the maximal rate divided by the concentration of active sites. In general, kcat/Km refers to the turnover number divided by the Michaelis constant.
